Test results published in publication PMC6797613, “Crystal Structure Of Photorespiratory Alanine:Glyoxylate Aminotransferase 1 (AGT1) From Arabidopsis thaliana” (Frontiers in Plant Science, 2019).

Biological target: the molecule itself
Assay: crystal structure; crystals grown by vapor diffusion from 4.1-4.2 M sodium formate, protein 11 mg/ml in 0.2 mM PLP, 10% glycerol, 100 mM Tris-HCl pH 8.5, room temperature; without or with 20 mM L-serine; data collected at 25°C; dimer by crystallographic dyad, tetramer by noncrystallographic two-fold axis

B1: alanine:glyoxylate aminotransferase 1 (AGT1) from Arabidopsis thaliana (enzyme, UniProt Q56YA5 1-401, looked up)
chain: MDYMYGPGRHHLFVPGPVNIPEPVIRAMNRNNEDYRSPAIPALTKTLLEDVKKIFKTTSGTPFLFPTTGTGAWESALTNTLSPGDRIVSFLIGQFSLLWIDQQKRLNFNVDVVESDWGQGANLQVLASKLSQDENHTIKAICIVHNETATGVTNDISAVRTLLDHYKHPALLLVDGVSSICALDFRMDEWGVDVALTGSQKALSLPTGLGIVCASPKALEATKTSKSLKVFFDWNDYLKFYKLGTYWPYTPSIQLLYGLRAALDLIFEEGLENIIARHARLGKATRLAVEAWGLKNCTQKEEWISNTVTAVMVPPHIDGSEIVRRAWQRYNLSLGLGLNKVAGKVFRIGHLGNVNELQLLGCLAGVEMILKDVGYPVVMGSGVAAASTYLQHHIPLIPSRI
notes: alanine:glyoxylate aminotransferase 1 (AGT1), Arabidopsis thaliana, AGI At2G13360, full length (residues 2/3-401 seen in the crystal); Untagged recombinant protein from a pET28a-derived plasmid (construct as in Liepman and Olsen, 2001); Catalytic dimer; an apparent tetramer (dimer of dimers) is seen in the crystal only; also called Arabidopsis AGT1; serine:glyoxylate aminotransferase; source: E. …
Question: With B1 as the protein, how does the “stoichiometry N” value read?
Answer: The value was 2.
